Test results from publication doi:10.1101/2024.02.19.580982 (bioRxiv, 2024).

B1: ΔNBD hNOD2-Fc (Fc fusion)
chain: MGEEGGSASHDEEERASVLLGHSPGCEMCSQEAFQAQRSQLVELLVSGSLEGFESVLDWLLSWEVLSWEDYEGFHLLGQPLSHLARRLLDTVWNKGTWACQKLIAAAQEAQADSQSPKLHGCWDPHSLHPARDLQSHRPAIVRRLHSHVENMLDLAWERGFVSQYECDEIRLPIFTPSQRARRLLDLATVKANGLAAFLLQHVQELPVPLALPLEAATCKKYMAKLRTTVSAQSRFLSTYDGAETLCLEDIYTENVLEVWADVGMAGPPQKSPATLGLEELFSTPGHLNDDAADVPPALLRHLFNCGRPGNSPMARLLPTMCIQASEGKDSSVAALLQKAEPHNLQITAAFLAGLLSREHWGLLAECQTSEKALLRRQACARWCLARSLRKHFHSIPPAAPGEAKSVHAMPGFIWLIRSLYEMQEERLARKAARGLNVGHLKLTFCSVGPTECAALAFVLQHLRRPVALQLDYNSVGDIGVEQLLPCLGVCKALYLRDNNISDRGICKLIECALHCEQLQKLALFNNKLTDGCAHSMAKLLACRQNFLALRLGNNYITAAGAQVLAEGLRGNTSLQFLGFWGNRVGDEGAQALAEALGDHQSLRWLSLVGNNIGSVGAQALALMLAKNVMLEELCLEENHLQDEGVCSLAEGLKKNSSLKILKLSNNCITYLGAEALLQALERNDTILEVWLRGNTFSLEEVDKLGCRDTRLLL
B2: ΔCARD hNOD2-Fc (Fc fusion)
chain: CKKYMAKLRTTVSAQSRFLSTYDGAETLCLEDIYTENVLEVWADVGMAGPPQKSPATLGLEELFSTPGHLNDDADTVLVVGEAGSGKSTLLQRLHLLWAAGQDFQEFLFVFPFSCRQLQCMAKPLSVRTLLFEHCCWPDVGQEDIFQLLLDHPDRVLLTFDGFDEFKFRFTDRERHCSPTDPTSVQTLLFNLLQGNLLKNARKVVTSRPAAVSAFLRKYIRTEFNLKGFSEQGIELYLRKRHHEPGVADRLIRLLQETSALHGLCHLPVFSWMVSKCHQELLLQEGGSPKTTTDMYLLILQHFLLHATPPDSASQGLGPSLLRGRLPTLLHLGRLALWGLGMCCYVFSAQQLQAAQVSPDDISLGFLVRAKGVVPGSTAPLEFLHITFQCFFAAFYLALSADVPPALLRHLFNCGRPGNSPMARLLPTMCIQASEGKDSSVAALLQKAEPHNLQITAAFLAGLLSREHWGLLAECQTSEKALLRRQACARWCLARSLRKHFHSIPPAAPGEAKSVHAMPGFIWLIRSLYEMQEERLARKAARGLNVGHLKLTFCSVGPTECAALAFVLQHLRRPVALQLDYNSVGDIGVEQLLPCLGVCKALYLRDNNISDRGICKLIECALHCEQLQKLALFNNKLTDGCAHSMAKLLACRQNFLALRLGNNYITAAGAQVLAEGLRGNTSLQFLGFWGNRVGDEGAQALAEALGDHQSLRWLSLVGNNIGSVGAQALALMLAKNVMLEELCLEENHLQDEGVCSLAEGLKKNSSLKILKLSNNCITYLGAEALLQALERNDTILEVWLRGNTFSLEEVDKLGCRDTRLLL

Molecular target: α-Synuclein preformed fibrils (α-Syn PFF) (mouse, UniProt O55042 1-140)
Assay: ELISA

Binder | Kd
B1 | 0.42 µM
B2 | 16.4 µM
